Experiment [1] concerns the target T1, ICAM1-Fc (R&D Systems) (human, UniProt P05362 28-480).
T1 construct: Bought; also called ICAM-1/CD54; not shown: Fc of the bought fusion protein
The experiment in a line: ELISA on coated protein. On the technique in general: ELISA stands for enzyme-linked immunosorbent assay.

The target of experiment [2] is T2, DCC.
T2 construct: also called DCC-His (R&D Systems)
T2 chain: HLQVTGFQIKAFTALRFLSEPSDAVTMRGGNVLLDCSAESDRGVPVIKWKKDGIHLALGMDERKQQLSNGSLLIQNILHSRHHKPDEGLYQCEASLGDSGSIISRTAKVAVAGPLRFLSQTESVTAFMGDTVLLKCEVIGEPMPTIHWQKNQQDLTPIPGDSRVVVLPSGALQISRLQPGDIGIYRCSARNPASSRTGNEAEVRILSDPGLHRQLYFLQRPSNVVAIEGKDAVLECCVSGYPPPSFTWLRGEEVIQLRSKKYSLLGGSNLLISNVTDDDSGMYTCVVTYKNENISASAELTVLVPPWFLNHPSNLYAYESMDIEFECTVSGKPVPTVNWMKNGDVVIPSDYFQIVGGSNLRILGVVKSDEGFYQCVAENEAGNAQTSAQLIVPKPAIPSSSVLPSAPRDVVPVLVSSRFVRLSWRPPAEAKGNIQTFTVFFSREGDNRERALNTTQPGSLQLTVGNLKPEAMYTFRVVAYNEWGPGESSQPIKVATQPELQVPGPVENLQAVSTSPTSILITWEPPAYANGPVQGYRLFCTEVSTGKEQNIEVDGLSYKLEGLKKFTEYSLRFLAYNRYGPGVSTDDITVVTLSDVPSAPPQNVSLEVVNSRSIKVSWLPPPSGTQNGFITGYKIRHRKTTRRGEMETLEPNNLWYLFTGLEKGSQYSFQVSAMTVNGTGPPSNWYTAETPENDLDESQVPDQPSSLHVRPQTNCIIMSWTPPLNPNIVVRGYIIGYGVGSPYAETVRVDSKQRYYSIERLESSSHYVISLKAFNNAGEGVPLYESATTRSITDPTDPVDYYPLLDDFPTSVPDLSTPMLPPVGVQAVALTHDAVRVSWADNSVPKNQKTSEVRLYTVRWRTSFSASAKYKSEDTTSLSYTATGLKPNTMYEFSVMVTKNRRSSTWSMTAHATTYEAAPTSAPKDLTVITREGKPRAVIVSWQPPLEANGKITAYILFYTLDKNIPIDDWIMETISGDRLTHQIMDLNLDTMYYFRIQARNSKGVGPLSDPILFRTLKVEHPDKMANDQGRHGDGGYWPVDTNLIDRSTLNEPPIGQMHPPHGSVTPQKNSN
The experiment in a line: ELISA on coated protein.

Experiment [3] addresses T3, IL13RA1.
T3 construct: also called IL13RA1-Fc-His (R&D Systems)
T3 chain: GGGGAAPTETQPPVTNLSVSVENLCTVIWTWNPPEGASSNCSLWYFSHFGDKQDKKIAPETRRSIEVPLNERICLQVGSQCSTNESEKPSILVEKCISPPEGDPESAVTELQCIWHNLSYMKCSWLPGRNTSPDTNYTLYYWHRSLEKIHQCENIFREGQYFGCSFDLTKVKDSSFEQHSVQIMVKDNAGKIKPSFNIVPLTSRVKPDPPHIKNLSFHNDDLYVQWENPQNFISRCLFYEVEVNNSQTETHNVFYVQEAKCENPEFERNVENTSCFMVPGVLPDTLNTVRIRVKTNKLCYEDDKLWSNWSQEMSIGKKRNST
The experiment in a line: ELISA on coated protein.

Experiment [4] deals with T4, GARS, endogenous in H929 multiple myeloma cells (human, UniProt P41250 37-739, limits assumed).
T4 construct: Native protein pulled down from H929 lysates; also called Glycyl-tRNA synthetase; GlyRS
T4 sequence: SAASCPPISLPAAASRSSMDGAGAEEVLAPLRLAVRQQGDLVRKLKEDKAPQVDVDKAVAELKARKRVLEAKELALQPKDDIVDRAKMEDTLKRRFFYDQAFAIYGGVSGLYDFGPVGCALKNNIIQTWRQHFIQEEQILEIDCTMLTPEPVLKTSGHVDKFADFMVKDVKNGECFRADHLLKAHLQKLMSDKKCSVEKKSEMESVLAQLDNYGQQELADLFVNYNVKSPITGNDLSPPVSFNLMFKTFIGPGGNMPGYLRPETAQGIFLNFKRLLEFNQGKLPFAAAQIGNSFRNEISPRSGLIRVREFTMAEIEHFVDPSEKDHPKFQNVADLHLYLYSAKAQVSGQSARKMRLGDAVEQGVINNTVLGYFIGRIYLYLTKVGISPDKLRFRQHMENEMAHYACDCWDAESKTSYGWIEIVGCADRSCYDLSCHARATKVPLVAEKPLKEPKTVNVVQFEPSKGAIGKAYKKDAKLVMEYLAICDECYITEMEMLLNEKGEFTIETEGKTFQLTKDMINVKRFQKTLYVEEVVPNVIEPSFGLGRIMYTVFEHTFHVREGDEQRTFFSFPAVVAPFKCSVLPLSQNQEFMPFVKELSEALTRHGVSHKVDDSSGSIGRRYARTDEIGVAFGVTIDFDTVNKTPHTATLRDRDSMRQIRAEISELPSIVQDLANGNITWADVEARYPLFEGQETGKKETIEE
The experiment in a line: flow cytometry, H929 + NT Green siRNA; None 1.35; surface target GARS putative. Background: A flow cytometer gives signals particle by particle.

The target in experiment [5] is T4, GARS, endogenous in H929 multiple …. Briefly: flow cytometry, H929 + CADM1 siRNA; None 0.89; surface target GARS putative.

Numbering of substitutions follows the chain as printed. Numbers in names are those of the source.

T1 sequence (P05362 28-480): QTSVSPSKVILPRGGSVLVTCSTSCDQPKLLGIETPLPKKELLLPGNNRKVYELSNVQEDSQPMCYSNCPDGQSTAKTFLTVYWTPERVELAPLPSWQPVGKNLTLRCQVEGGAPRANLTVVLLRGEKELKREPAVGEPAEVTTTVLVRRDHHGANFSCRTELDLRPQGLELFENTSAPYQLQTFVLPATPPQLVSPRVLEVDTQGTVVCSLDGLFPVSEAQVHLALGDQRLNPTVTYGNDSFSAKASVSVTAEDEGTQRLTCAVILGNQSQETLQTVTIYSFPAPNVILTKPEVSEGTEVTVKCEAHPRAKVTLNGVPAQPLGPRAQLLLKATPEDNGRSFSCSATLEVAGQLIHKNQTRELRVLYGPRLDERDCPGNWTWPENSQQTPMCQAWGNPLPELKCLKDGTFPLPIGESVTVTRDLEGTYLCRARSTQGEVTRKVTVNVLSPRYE

B1: HW-8 chimeric rabbit-human IgG1 LA/LA/PG (antibody, V domains shown)
VH: QSLEESGGRLVTPGTPLTLTCTVSGFSLSSYAMSWVRQAPGKGLEWIGAISTGGSTTYASWAKGRFTISKTSSTTVDLKMTSLTTEDTATYFCVRHFRLWGPGTLVTISS
VL: QVLTQTPSSVSAAVGGTVTIKCQASQSIGSALAWFQQKPGQRPKLLIYRASNLASGVPSRFKGSGSGTEFALTISGVQREDAATYYCLGGAAAVWAFGAGTNVEIKR
notes: Fc-silenced (L234A/L235A/P329G) IgG1, kappa; Alexa Fluor 647-labeled in single-step flow cytometry; Cluster C-45
With B1, the binding result in experiment [1], in experiment [2] and in experiment [3] was “no binding (tested: 150 ng IgG1 per well)” throughout. Besides, the results for the “Cells stained (%)” value in experiment [4] and in experiment [5] were 86.6% and 89.3%, respectively.

B2: TH9-0022 (antibody, human IgG1, kappa, L234A L235A, V domains shown)
VH: QSLEESGGRLVTPGTPLTLTCTVSGFSLSSYAMNWVRQAPGKGLEWIGIINSYGSTYYASWAKGRFTISKTSTTVDLKITSPTTEDTATYFCARVTYDSYGYGYAPYGMDLWGPGTLVTVSS
VL: LVMTQTPSSTSNAVGGTVTIKCQASQSIGNVLAWYQQKPGQPPKLLIYAASTLASGVPSRVGGSRSGTEYTLTISGVQREDAATYYCLGSDSDSDIAFGGGTELEILR
notes: also called TH9-022; negative control IgG1
Consider B2, for which the binding result in experiment [1], in experiment [2] and in experiment [3] was “no binding (tested: 150 ng IgG1 per well)” in each case.

B3: HW-97 chimeric rabbit-human IgG1 LA/LA/PG (antibody, V domains shown)
VH: QKQLVESGGRLVTPGTPLTLTCTVTGIDLSSHGMSWVRQAPGKGLEWIGVIYPSGSTWYASWARGRFTISKTSTTVDLKMTSLTTEDTATHFCARGDVGGADNNIWGPGTLVTVSS
VL: SFVLTQPASVQVDLGQTVSLTCTAETLSRSYASWYQQKPGQAPVLLIYRDTSRPSGVPDRFSGSSSGNTATLTISGAQAGDEADYYCATSDGSGSSYQYVFGGGTQLTVTG
notes: Fc-silenced (L234A/L235A/P329G) IgG1, lambda; Alexa Fluor 647-labeled in single-step flow cytometry; Prototype of cluster C-97
Turning to B3, the binding result in experiment [1], in experiment [2] and in experiment [3] was “no binding (tested: 150 ng IgG1 per well)” in each case.

B4: HW-101 chimeric rabbit-human IgG1 LA/LA/PG (antibody, V domains shown)
VH: QEQLVESGGRLVTPGTPLTLTCKASGFSLGKYDMSWVRQAPGKGLEWIGTIYAGSGSTWYASWAKGRFTISKTSTTVDLKMTSLTTEDTATYFCARDFLGVNSIWGPGTLVTISS
VL: B3 VL with D13N, E25D, G40D, Y48H, S65N, S96N, Y97F, Q98H, Y99F
notes: Fc-silenced (L234A/L235A/P329G) IgG1, lambda; Alexa Fluor 647-labeled in single-step flow cytometry; Cluster C-97
Take B4: the binding result in experiment [1], in experiment [2] and in experiment [3] was “no binding (tested: 150 ng IgG1 per well)” each time.

The values are drawn from US20260049134A1 (UNIVERSITY OF FLORIDA RESEARCH FOUNDATION, published 2026).
